Data on five molecules can be found in patent CN114230662A (ANYUAN MEDICINE SCIENCE AND TECH SHANGHAI LIMITED COMPANY, dated 2022).

Assay [1] has as its target T1, 人CD47抗原 (recombinant human CD47, 北京义翘神州生物技术有限公司, 货号12283-HCCH) (human, UniProt Q08722 19-139).
T1 construct: The catalogue number is printed only in 6.1 and 6.2; the construct is not described; also called 重组人CD47; human CD47 antigen
The experiment in a line: ELISA, coated human CD47 (0.2 μg/ml).

The target in assay [2] is T2, human CD47 on cells (Raji-luc, CCRF-CEM, Jurkat, CHO/K1-hCD47) (human, UniProt Q08722 19-323).
T2 construct: whole, on cells; also called 细胞表面的CD47
The experiment in a line: flow cytometry on CHO/K1-hCD47 cells.

The target of assay [3] is T1, 人CD47抗原 (recombinant human CD47, …). The experiment in a line: blocking ELISA on coated human CD47 (2.0 μg/ml); competitor biotin-labelled human SIRPα (0.2 μg/ml).
The target in assay [4] is T2, human CD47 on cells (Raji-luc, …). The experiment in a line: flow cytometry on CCRF-CEM cells.
In assay [5] the target is T3, 重组人CD47蛋白(His-tag) (Acro Biosystems, 货号CD-H5227) (human, UniProt Q08722 19-139).
T3 construct: Analyte (mobile phase) in the Biacore T200 measurements of 2.5 and 6.6; also called recombinant human CD47 protein (His-tag); not shown: His tag
Put plainly: Biacore T200 (called BLI in the filing), method as in example 2.5.

The target of assay [6] is T2, human CD47 on cells (Raji-luc, …). Put plainly: flow cytometry on Raji-luc and Jurkat cells; against control antibody AB12W2.

T1 sequence (Q08722 19-139 limits assumed): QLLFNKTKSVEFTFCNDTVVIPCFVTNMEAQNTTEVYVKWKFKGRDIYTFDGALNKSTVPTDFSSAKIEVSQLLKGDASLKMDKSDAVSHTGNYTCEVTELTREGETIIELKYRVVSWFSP
T2 sequence (Q08722 19-323): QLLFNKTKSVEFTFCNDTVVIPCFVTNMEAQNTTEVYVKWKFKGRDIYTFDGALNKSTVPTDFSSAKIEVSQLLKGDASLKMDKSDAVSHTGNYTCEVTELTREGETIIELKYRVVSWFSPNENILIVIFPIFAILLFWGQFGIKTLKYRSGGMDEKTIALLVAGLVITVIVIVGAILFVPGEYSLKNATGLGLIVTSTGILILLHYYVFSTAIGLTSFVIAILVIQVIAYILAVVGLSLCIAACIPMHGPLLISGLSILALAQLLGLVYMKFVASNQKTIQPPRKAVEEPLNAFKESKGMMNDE
T3 sequence (Q08722 19-139 limits assumed): as the sequence (Q08722 19-139 limits assumed) above

B1: AB12W3 (antibody, human IgG4 S228P, kappa, V domains shown)
VH: EVQLVQSGAEVVKPGATVKISCKASGYSFTDYFMTWMKQSPGKSLEWIGRINPYNGETFYNQKFQGKATLTVDKSSTTAHMELSSLRSEDSAVYYCGRGGTAGTDYWGQGTLLTVSS
VL: DVLLTQSPLSLPVTLGQPASISCRSSQSVVRSNGNTYLEWYLQKPGQSPRLLINKVSRRFSGVPDRFSGSGSGSEFTLKISRVEAEDVGIYYCFQGSHVPYTFGQGTKLEIKR
notes: Humanized from Mo2A1621 by resurfacing; Expressed in CHO cells
For the molecule B1, the EC50 in assay [1] worked out at 0.0112 mg/L; in assay [2], 0.461 mg/L; in assay [3], 1.17 mg/L.

B2: AB12W2 (antibody, V domains shown)
VH: QMQLVQSGAEVKKTGSSVKVSCKASGFNIKDYYLHWVRQAPGQALEWMGWIDPDQGDTEYAQKFQDRVTITRDRSMSTAYMELSSLRSEDTAMYYCNAAYGSSSYPMDYWGQGTTVTV
VL: NIQMTQSPSAMSASVGDRVTITCKASQDIHRYLSWFQQKPGKVPKHLIYRANRLVSGVPSRFSGSGSGTEFTLTISSLQPEDFATYYCLQYDEFPYTFGGGTKVEIK
notes: Humanized anti-human CD47 control antibody with the variable regions of Celgene's CC-90002 (per CN104271757B); it was detected with anti-human IgG; also called CC-90002 (source of the variable regions); 对照抗体AB12W2
As to B2, the values for the half-maximal effective concentration (EC50) in assay [4], in assay [1] and in assay [3] were 0.157 mg/L, 0.0092 mg/L and 1.02 mg/L, respectively.

B3: AB12W4 (antibody, human IgG4 S228P, kappa, V domains shown)
VH: QIQLVQSGAEVVKPGASVKISCKASGYTFTDYYINWVKQAPGQRLEWIGWIYPGSGNTKHNQKFQGKATLTVDTSSSTAYMELSSLRSEDTAVYFCARRGTYYYGSSSDGFPYWGQGTLVTVSS
VL: QIVLTQSPATMSASPGERVTISCRASSSVYYMYWYQQKPGQSPRPWIYRTSNLATGVPARFSGSGSGTSYSLTISSMEPEDFATYYCQQYHSYPLTFGQGTKLEIKR
notes: Humanized from Mo2A11971 by resurfacing
Take B3: the binding result in assay [5] is recorded as “binds”.

B4: AB12W6 (antibody, human IgG4 S228P, kappa)
heavy: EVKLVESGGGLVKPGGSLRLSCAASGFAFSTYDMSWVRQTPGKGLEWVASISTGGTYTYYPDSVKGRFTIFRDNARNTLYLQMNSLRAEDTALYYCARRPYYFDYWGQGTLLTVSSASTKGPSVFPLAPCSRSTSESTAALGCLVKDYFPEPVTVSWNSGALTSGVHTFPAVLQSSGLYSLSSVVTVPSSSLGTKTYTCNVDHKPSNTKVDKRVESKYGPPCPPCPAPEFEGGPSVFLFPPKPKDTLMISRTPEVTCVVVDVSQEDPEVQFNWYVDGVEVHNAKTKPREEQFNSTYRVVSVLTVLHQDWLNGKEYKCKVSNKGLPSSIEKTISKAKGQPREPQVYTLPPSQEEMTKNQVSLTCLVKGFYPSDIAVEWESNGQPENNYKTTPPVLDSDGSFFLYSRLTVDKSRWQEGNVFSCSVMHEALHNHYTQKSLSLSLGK
light: DIKMTQSPSSKSASVGERVTITCQASQDINNYLSWFQQKPGKAPKTLIYRANRLMTGVPSRFSGSGSGQDFSLTISSLQPEDMGIYYCLQFDDFPLTFGQGTKLEIKRTVAAPSVFIFPPSDEQLKSGTASVVCLLNNFYPREAKVQWKVDNALQSGNSQESVTEQDSKDSTYSLSSTLTLSKADYEKHKVYACEVTHQGLSSPVTKSFNRGEC
notes: Humanized from Mo2A21331 by resurfacing
For the molecule B4, the figures for the 50% effective concentration (EC50) in assay [1], in assay [2] and in assay [3] were 0.0128 mg/L, 0.217 mg/L and 1.29 mg/L, respectively. In addition, the “EC50 lower than that of the control antibody AB12W2” value in assay [6] was found to be 50%.

B5: AB12W9 (antibody)
heavy: EVKLVESGGGLVKPGGSLRLSCAASGFAFSTYDMSWVRQTPGKGLEWVASISTGGTYTYYPDSVKGRFTIFRDNARNTLYLQMNSLRAEDTALYYCARRPYYFDYWGQGTLLTVSSASTKGPSVFPLAPSSKSTSGGTAALGCLVKDYFPEPVTVSWNSGALTSGVHTFPAVLQSSGLYSLSSVVTVPSSSLGTQTYICNVNHKPSNTKVDKKVEPKSCDKTHTCPPCPAPELLGGPSVFLFPPKPKDQLMISRTPEVTCVVVDVSHEDPEVKFNWYVDGVEVHNAKTKPREEQYASTYRVVSVLTVLHQDWLNGKEYKCKVSNKALPAPIEKTISKAKGQPREPQVYTLPPSREEMTKNQVSLTCLVKGFYPSDIAVEWESNGQPENNYKTTPPVLDSDGSFFLYSKLTVDKSRWQQGNVFSCSVLHEALHNHYTQKSLSLSPGK
light: B4 light
notes: as for B4
For the molecule B5, the values for the 50% effective concentration (EC50) in assay [4] and in assay [2] were 0.162 mg/L and 0.252 mg/L, respectively.
